From publication PMC7943762, “Bmp8a is an essential positive regulator of antiviral immunity in zebrafish”

T1: rStat1a (Danio rerio (zebrafish), UniProt O93598 1-749)
T1 sequence: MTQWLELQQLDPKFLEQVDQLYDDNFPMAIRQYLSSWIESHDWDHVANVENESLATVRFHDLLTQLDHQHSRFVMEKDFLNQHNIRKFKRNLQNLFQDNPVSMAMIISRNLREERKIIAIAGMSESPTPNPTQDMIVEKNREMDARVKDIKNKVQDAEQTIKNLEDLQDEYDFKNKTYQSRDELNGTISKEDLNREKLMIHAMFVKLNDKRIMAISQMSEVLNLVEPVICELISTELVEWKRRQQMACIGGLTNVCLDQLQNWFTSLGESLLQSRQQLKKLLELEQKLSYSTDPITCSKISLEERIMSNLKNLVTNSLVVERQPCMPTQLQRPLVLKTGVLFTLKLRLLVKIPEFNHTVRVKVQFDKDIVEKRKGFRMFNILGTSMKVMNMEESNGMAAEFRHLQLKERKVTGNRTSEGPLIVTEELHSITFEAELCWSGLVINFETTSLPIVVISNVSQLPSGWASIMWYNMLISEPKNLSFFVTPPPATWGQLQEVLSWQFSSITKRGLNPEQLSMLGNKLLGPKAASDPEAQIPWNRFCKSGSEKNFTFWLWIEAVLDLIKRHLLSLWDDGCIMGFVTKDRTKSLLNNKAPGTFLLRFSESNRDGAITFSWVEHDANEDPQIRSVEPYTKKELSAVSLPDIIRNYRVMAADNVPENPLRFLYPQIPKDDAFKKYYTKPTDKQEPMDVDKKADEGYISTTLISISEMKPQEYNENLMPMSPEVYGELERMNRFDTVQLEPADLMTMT

T2: rStat1b (Danio rerio (zebrafish), UniProt B0S789 1-725)
T2 sequence: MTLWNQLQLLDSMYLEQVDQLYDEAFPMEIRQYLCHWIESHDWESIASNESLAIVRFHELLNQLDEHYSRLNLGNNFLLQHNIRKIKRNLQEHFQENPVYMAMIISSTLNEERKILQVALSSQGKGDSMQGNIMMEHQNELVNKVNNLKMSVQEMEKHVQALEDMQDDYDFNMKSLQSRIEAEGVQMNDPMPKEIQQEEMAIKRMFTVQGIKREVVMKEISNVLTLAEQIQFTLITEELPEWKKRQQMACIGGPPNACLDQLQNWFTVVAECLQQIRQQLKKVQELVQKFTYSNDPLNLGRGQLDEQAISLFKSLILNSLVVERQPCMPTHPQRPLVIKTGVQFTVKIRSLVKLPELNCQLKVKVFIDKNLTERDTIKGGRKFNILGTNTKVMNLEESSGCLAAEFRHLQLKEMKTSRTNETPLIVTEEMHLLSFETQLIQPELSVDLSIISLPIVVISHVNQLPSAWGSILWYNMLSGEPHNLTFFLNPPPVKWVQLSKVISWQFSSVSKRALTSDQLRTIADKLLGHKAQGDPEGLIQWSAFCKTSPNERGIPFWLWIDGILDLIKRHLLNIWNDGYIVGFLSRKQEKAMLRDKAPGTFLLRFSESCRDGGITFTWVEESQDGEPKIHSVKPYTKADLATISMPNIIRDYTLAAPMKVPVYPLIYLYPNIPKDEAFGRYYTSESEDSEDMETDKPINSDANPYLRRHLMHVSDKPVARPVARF

B1: P1 mutant probe (dsDNA)
DNA 1: AGACCAGCCCGGGGCAACCAA
DNA 2: TTGGTTGCCCCGGGCTGGTCT
B2: P1 GAS probe (dsDNA)
DNA 1: AGACCATTCCGGGAAAACCAA
DNA 2: TTGGTTTTCCCGGAATGGTCT
B3: P2 GAS probe (dsDNA)
DNA 1: TTCAATTTACTAGAACTTCTC
DNA 2: GAGAAGTTCTAGTAAATTGAA
B4: P2 mutant probe (dsDNA)
DNA 1: TTCAATGCACTAGGCCTTCTC
DNA 2: GAGAAGGCCTAGTGCATTGAA

Tests used:
rStat1a [1] = target: T1, rStat1a; experiment: competition; unlabeled competitor vs biotin P1 probe; little change; Beyotime GS009 EMSA/Gel-Shift binding buffer with poly(dI-dC), 25 C, 25 min preincubation then 30 min with 0.5 uM biotin probe (competitor stated as 0.5 uM), native 6% PAGE; salt and pH not stated; conditions: protein: recombinant; tags: His (pET-28a; Ni-NTA, anti-His); chain copies: 2; blunt
rStat1b [2] = target: T2, rStat1b; experiment: as above; conditions: protein: recombinant; tags: His (pET-28a; Ni-NTA, anti-His); chain copies: 2; blunt
rStat1a [3] = target: T1, rStat1a; experiment: EMSA; poly(dI-dC); anti-His supershift; unlabeled probe competes; Beyotime GS009 EMSA/Gel-Shift binding buffer with poly(dI-dC), 25 C, 25 min preincubation then 30 min with 0.5 uM biotin probe (competitor stated as 0.5 uM), native 6% PAGE; salt and pH not stated; conditions: protein: recombinant; tags: His (pET-28a; Ni-NTA, anti-His); chain copies: 2; label: biotin on both strands (5'); blunt
rStat1b [4] = target: T2, rStat1b; experiment: as above; conditions: protein: recombinant; tags: His (pET-28a; Ni-NTA, anti-His); chain copies: 2; label: biotin on both strands (5'); blunt
rStat1a [5] = target: T1, rStat1a; experiment: competition; unlabeled competitor vs biotin P2 probe; little change; Beyotime GS009 EMSA/Gel-Shift binding buffer with poly(dI-dC), 25 C, 25 min preincubation then 30 min with 0.5 uM biotin probe (competitor stated as 0.5 uM), native 6% PAGE; salt and pH not stated; conditions: protein: recombinant; tags: His (pET-28a; Ni-NTA, anti-His); chain copies: 2; blunt
rStat1b [6] = target: T2, rStat1b; experiment: as above; conditions: protein: recombinant; tags: His (pET-28a; Ni-NTA, anti-His); chain copies: 2; blunt

Row | Binder | binding result (rStat1a [3]) | binding result (rStat1b [4]) | also measured
1 | B1 |  |  | binding result (rStat1a [1]): no binding; binding result (rStat1b [2]): no binding
2 | B2 | binds | binds | 
3 | B3 | binds | binds | 
4 | B4 |  |  | binding result (rStat1a [5]): no binding; binding result (rStat1b [6]): no binding
